Reference: US20240150417A1 (CELLEMEDY, published 2024)

Biological target: T1, human transferrin receptor (human, UniProt P02786 89-760, limits assumed)
T1 construct: also called TfR Human; transferrin receptor 1
Experiment: MST (Monolith NT.115), dye-labelled protein, receptor titrated
Procedure: First, 100 μl of dye that specifically binds to a hexa-His tag (RED-tris-NTA 2nd Generation Dye) was prepared at a concentration of 50 nM, along with 100 μl of the produced protein at a concentration of 200 nM, followed by mixing the same and incubating at room temperature for 30 minutes. The incubated product was centrifuged at 13000 rpm for 10 minutes at 4° C. by a centrifuge, thus to separate the supernatant and obtain a dye-labeled protein.
Then, 25 μl of 9.65 μM transferrin receptor was added to the 1st PCR tube; 10 μl of PBS-T (PBS+0.5% tween 20) buffer was added to 2nd to 16th PCR tubes; 10 μl of transferrin in the 1st PCR tube was transferred to the 2nd PCR tube; and 10 μl was again transferred from the 2nd PCR tube to the 3rd PCR tube. Likewise, this procedure was continued up to the 16th tube thus to perform ½ dilution in a sequential order so that each of the 2nd to 16th PCR tubes becomes 20 μl.
Thereafter, 10 μl of the dye-labeled protein was added to each PCR tube, and the reaction was performed at room temperature for 1 hour.

T1 sequence (P02786 89-760 limits assumed): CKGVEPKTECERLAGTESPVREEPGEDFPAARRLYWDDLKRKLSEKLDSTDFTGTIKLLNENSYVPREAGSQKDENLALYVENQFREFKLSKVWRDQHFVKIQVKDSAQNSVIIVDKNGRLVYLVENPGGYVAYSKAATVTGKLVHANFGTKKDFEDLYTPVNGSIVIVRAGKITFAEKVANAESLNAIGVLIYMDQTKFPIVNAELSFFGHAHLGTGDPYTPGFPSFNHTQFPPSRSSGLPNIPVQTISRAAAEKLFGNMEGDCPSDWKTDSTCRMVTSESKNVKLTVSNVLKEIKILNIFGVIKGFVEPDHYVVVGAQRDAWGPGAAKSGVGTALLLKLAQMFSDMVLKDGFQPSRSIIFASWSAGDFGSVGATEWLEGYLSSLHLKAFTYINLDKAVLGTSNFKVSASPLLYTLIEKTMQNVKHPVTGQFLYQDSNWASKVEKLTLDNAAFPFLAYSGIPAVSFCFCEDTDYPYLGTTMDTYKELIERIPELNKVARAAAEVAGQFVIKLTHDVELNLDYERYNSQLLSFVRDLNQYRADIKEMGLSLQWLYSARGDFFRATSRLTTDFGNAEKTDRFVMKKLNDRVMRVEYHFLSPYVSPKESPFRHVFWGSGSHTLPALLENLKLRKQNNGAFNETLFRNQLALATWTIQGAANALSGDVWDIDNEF

B1: Din-gp100-huHF (other)
chain: MHHHHHHEFTTASTSQVRQNYHQDSEAAINRQINLELYASYVYLSMSYYFDRDDVALKNFAKYFLHQSHEEREHAEKLMKLQNQRGGRIFLQDIKKPDCDDWESGLNAMECALHLEKNVNQSLLELHKLATDKNDPHLCDFIETHYLNEQVKAIKELGDHVTNLRKVPRNQDWLKMGAPESGLAEYLFDKHTLGDSDNES
modifications: One monomer given; 24 monomers self-assemble. His tag carried RED-tris-NTA dye in MST.
notes: Self-assembled 24-mer; built from the site; also called gp100-huHF, TSA insertion site Din (the middle of D helix)
- Kd: 29.3 nM

B2: Ein-gp100-huHF (other)
chain: MHHHHHHEFTTASTSQVRQNYHQDSEAAINRQINLELYASYVYLSMSYYFDRDDVALKNFAKYFLHQSHEEREHAEKLMKLQNQRGGRIFLQDIKKPDCDDWESGLNAMECALHLEKNVNQSLLELHKLATDKNDPHLCDFIETHYLNEQVKAIKELGDHVTNLRKMGAPESGLAEYLFDKHKVPRNQDWLTLGDSDNES
notes: Self-assembled 24-mer; built from the site; also called gp100-huHF, TSA insertion site Ein (the middle of E helix)
- Kd: 6.28 nM
